Source: patent CN114395042A (BEIJING COONOXIN ZONGCHENG SCIENCE AND TECH CO, dated 2022)

T1: 人IL33-his重组蛋白 (human, UniProt O95760 112-270)
T1 construct: range 112-270; also called human IL-33; not shown: his tag
T1 sequence (looked up): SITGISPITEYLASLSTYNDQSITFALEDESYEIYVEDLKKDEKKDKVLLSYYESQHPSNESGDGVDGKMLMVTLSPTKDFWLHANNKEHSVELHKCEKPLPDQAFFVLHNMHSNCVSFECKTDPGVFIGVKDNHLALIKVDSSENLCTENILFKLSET

T2: hIL-33WT (human, UniProt O95760 112-270, limits assumed)
T2 sequence (looked up): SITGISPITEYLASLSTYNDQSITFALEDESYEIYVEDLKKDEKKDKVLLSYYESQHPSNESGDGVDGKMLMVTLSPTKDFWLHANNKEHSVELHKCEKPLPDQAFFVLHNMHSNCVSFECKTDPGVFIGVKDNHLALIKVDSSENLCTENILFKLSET


Tests used:
人IL33-his重组蛋白 [1] = target: T1, 人IL33-his重组蛋白; assay: BLI (ForteBio), Example 3
人IL33-his重组蛋白 [2] = target: T1, 人IL33-his重组蛋白; assay: BLI (ForteBio), antibody captured on AHC probe, IL33-his 15-60 nM in solution, 1:1 fit
hIL-33WT = target: T2, hIL-33WT; assay: cell-based or functional assay

Binder	Kd (人IL33-his重组蛋白 [1])	koff (人IL33-his重组蛋白 [1])	kon (人IL33-his重组蛋白 [1])	Kd (人IL33-his重组蛋白 [2])	koff (人IL33-his重组蛋白 [2])	kon (人IL33-his重组蛋白 [2])	IC50 of inhibition of IL-33-stimulated IL-5 production by KU812 cells (hIL-33WT)
ch25D8 (antibody, human IgG1, kappa, V domains shown, also called 嵌合抗体ch25D8; 25D8分子的嵌合抗体) VH: QVQLQQSGTELVKPGASVKLSCKTSGYTFTSYWIQWVKQRPGQGLGWIGEIFPGTGTTYYNEKFKGKATLTTDTSSTTAYMQLSSLTSEDSAVYFCARRIRDYYGSNYFDYWGQGTTLTVSS VL: QIVLTQSPAIMSASPGEKVTITCSASSSVSYMHWFQQKPGTSPKLWIYRTSNLASGVPDRFSGSGSGTSYSLTISRMEAEDAATYYCLQRSTYLFMFGAGTKLELKR	0.617 nM	0.000472 s⁻¹	766000 M⁻¹ s⁻¹	0.9 nM	7.53e-05 s⁻¹	83600 M⁻¹ s⁻¹	–
ANB020 (antibody, V domains shown, The variable regions were cloned into vectors holding human IgG1 light and heavy chain constant regions; also called 对照抗体ANB020; 对照抗体) VH: QVQLMQSGAEVKKPGASVKVSCKASGYTFTSYWMHWVRQAPGQGLEWMGTIYPRNSNTDYNQKFKARVTMTRDTSTSTVYMELSSLRSEDTAVYYCARPLYYYLTSPPTLFWGQGTLVTVSS VL: DIQLTQSPSFLSASVGDRVTLTCKASQDVGTAVAWTQQKPGKAPKLLIYWASTRHTGVPSRFSGSGSGTEFTLTISSLQPEDFATYYCQQAKTYPFTFGSGTKLEIK	–	–	–	6.7 nM	0.000419 s⁻¹	62500 M⁻¹ s⁻¹	5.82 mg/L

Other lines, results leading:

Kd (人IL33-his重组蛋白 [1])	koff (人IL33-his重组蛋白 [1])	kon (人IL33-his重组蛋白 [1])	Kd (人IL33-his重组蛋白 [2])	koff (人IL33-his重组蛋白 [2])	kon (人IL33-his重组蛋白 [2])	IC50 of inhibition of IL-33-stimulated IL-5 production by KU812 cells (hIL-33WT)	Binder
–	–	–	77.7 nM	0.000619 s⁻¹	7970 M⁻¹ s⁻¹	–	ch25H12 (antibody, human IgG1, kappa, V domains shown, Human-mouse chimeric IgG1/kappa expressed in HEK293 and purified on Protein A; also called 嵌合抗体ch25H12) VH: EVQLQQSGAELVKPGASVKLSCTASGFNIKDTYIHWVKQRPEQGLEWIGRIDPTADNTKYHPKFQGKATLTADTSSNTAYLQLSSLTSEDTAVYFCARGSSYALDYWGQGTSVTVSS VL: QIVLTQSPAIMSASPGEKVTITCSASSSVSYMHWFQQKPGTSPKLWIYRTSNLASGVPDRFSGSGSGTSYSLTISRMEAEDAATYYCQQRSSYLFMFGAGTKLELKR
0.61 nM	0.000366 s⁻¹	600000 M⁻¹ s⁻¹	–	–	–	0.677 mg/L	h25D8H1L1 (antibody, human IgG1, kappa, V domains shown, also called 人源化抗体h25D8H1L1; hzVH1/hzVL1) VH: QVQLVQSGAEVKKPGASVKLSCKTSGYTFTSYWIQWVRQAPGQGLEWIGEIFPGTGTTYYNQKFQGRATLTTDTSTTTAYMELSSLRSEDTAVYFCARRIRDYYGSNYFDYWGQGTTLTVSS VL: DIQLTQSPSSMSASVGDRVTITCRASSSVSYMHWFQQKPGKAPKLWIYRTSNLQSGVPSRFSGSGSGTDYTLTISSMQPEDFATYYCLQRSTYLFMFGQGTKLELKR
